Measurements taken from US20110262445A1 (CEPHALON AUSTRALIA, published 2011).

What was measured:
human IL-23 [1] = biological target: T1, human IL-23 (human, UniProt P29460 23-328; Q9NPF7 20-189); assay: SPR, purified scFv captured via FLAG; LOD estimated 1 × 10^-5 s^-1
T1 construct: Recombinant (Ebioscience); HIS-tagged in flow cytometry, biotinylated in some assays; also called hIL-23; rhIL-23
T1 sequence 1: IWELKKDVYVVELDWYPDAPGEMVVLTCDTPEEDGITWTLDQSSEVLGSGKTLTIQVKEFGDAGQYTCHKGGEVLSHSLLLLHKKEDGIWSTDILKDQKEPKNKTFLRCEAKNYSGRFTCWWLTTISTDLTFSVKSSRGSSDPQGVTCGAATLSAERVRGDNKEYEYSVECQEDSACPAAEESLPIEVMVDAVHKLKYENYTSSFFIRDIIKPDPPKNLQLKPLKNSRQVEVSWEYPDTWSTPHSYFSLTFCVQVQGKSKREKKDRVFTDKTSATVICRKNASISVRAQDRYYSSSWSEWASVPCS
T1 sequence 2: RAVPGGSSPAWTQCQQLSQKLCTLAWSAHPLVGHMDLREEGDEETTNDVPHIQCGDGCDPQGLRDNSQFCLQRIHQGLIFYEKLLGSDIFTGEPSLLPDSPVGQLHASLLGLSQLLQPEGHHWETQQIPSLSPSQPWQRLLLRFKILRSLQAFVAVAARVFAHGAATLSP
Experimental: (§1) A number of the scFv variants presented in TABLE 4 were selected for full characterization of binding kinetics, encompassing a broad range of mutation profiles and binding affinities. Large-scale protein expressions were carried out for each scFv. The expressed scFvs were purified as monomeric proteins and tested for binding against IL-12 and IL-23 by SPR (TABLE 5).
(§2) Purified scFvs were subjected to full kinetic characterization using a BIAcore T100 biosensor (GE Healthcare). Approximately 10,000 RU of the proprietry FLAG-specific capture molecule was immobilized on a CM5 Series S Sensor chip, using standard amine coupling chemistry in flow cells (FC) 1 and FC2 (or alternatively FC3 and FC4) of the BIAcore T100 Biosensor. The running buffer used was HBS-EP+ (BIAcore) and interactions measured at 30° C. or 35° C. to promote differentiation of scFvs with very similiar kd values. Peak purified FLAG-tagged scFvs (prepared as described in the previous paragraph) were diluted to 10 nM in running buffer, and captured on FC2 at a flow rate of 10 μl/min in order to capture 50 RU of scFv (typically 60 sec was sufficient to capture this level of tagged scFv). After an appropriate stabilization period, the target, IL-12 or IL-23, were passed over FC1 and FC2 at a flow rate of 60 μl/min at concentrations ranging from 81 nM to 0.13 nM (using a five-fold dilution of IL-12) and 81 nM to 1 nM (using a three-fold dilution of IL-23). The contact time for association was 180 sec and dissociation measured for 10 mins for the highest concentration and 300 sec for all other concentrations in the series. The sensorgram data from FC2 was subtracted from FC1 and a buffer only control. The curves were fitted using a 1:1 Langmuir equation to generate the kₐ, kd and KD values.

human IL-23 [2] = biological target: T1, human IL-23; assay: SPR screen, crude scFv captured via FLAG
Method in brief: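 Crude periplasmic FLAG-tagged scFvs were captured on an anti-FLAG surface (approx. 100 or 50 RU) in HBS-EP+ at 25 °C. IL-23 was injected for 120 s at 30 μl/min, with 200 s dissociation. Referenced sensorgrams were fitted to a 1:1 Langmuir model for ka, kd and KD.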

human IL-12 [3] = biological target: T2, human IL-12 (human, UniProt P29460 23-328; P29459 23-219); assay: SPR, purified scFv
T2 construct: Recombinant (Peprotech); FLAG-tagged IL-12 in the flow cytometry assays, biotinylated in the IL-12Rβ2 assay; also called hIL-12
T2 sequence 1: T1 sequence 1
T2 sequence 2: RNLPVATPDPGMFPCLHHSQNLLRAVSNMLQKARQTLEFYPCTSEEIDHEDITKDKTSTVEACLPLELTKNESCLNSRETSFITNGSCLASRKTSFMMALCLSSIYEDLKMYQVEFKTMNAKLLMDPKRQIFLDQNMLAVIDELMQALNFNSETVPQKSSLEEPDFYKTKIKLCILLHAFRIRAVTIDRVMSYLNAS

human IL-12 [4] = biological target: T2, human IL-12; assay: SPR, purified scFv captured via FLAG
Experimental: as §1, §2

human IL-23 [5] = biological target: T1, human IL-23; assay: SPR, purified scFv captured via FLAG
Experimental: as §1, §2

human IL-12 [6] = biological target: T2, human IL-12; assay: ELISA, SPR
human IL-23 [7] = biological target: T1, human IL-23; assay: ELISA, SPR
human IL-23 [8] = biological target: T1, human IL-23; assay: SPR, IgG; LOD estimated 1 × 10^-5 s^-1
human IL-12 [9] = biological target: T2, human IL-12; assay: SPR, IgG
Experimental: (§3) CU-A6 was converted to Antibody 183, CP-A6 was converted to Antibody 184 and AW-F2 was converted to Antibody 207 by addition of a human heavy chain Fc region (SEQ ID NO: 8) and a constant kappa light chain region (SEQ ID NO: 9). IgG molecules were expressed by co-transfecting the heavy and light chain construct for each antibody into HEK 293E cultures. The expressed IgGs were purified by affinity chromatography and gel exclusion and the resulting monomeric molecules were tested for IL-12 and IL-23 binding by SPR (TABLE 6). All three IgG variants retained binding activity against both analytes with a visible improvement in kd compared to the parental wild-type IgG. Based on this, it is reasonable to expect that scFv variants described in TABLE 4 could be converted to the IgG format and retain improved binding characteristics against IL-12 and IL-23.
(§4) Using a SPR 3000, Protein A was immobilized onto FC1 and FC2 (or alternatively FC3 and FC4) of a CM5 research grade sensor chip using amine coupling, giving approximately […] RU. FC1 was used a blank throughout the experiments. The experiments were run in HBS-P buffer (SPR). At a flow rate of 20 μl/min, 20 μl of 5 μg/mL of antibody was passed over FC2. IL-12, IL-23 or IL-12p40 (Peprotech) were passed over the surface of FC1 and FC2 at concentrations ranging from 66 nM to 2 nM. Regeneration of the surface was performed using 10 mM Glycine, pH 1.0. The sensorgram data from FC2 was subtracted from FC1 and a buffer only control. The curves were fitted using a 1:1 Langmuir equation to generate the kd, ka and KD values. All curves were fitted with a χ² of less then 2.0 where possible.

human IL-23 [10] = biological target: T1, human IL-23; assay: SPR, IgG
Experimental: as §3, §4

B1: scFv AW-F2 (scFv)
scFv: QVQLVQSGAEVKKPGASVKVSCKASGYTFTDYYLHWVRQAPGQGLEWMGWIDPENGDTESAPKFQGRVTMTTDTSTSTAYMELRSLRSDDTAVYYCNANKELRYFDVWGQGTMVTVSSGGGGSGGGGSGGGGSEIVMTQSPATLSVSPGERATLSCRASQSISINLHWYQQKPGQAPRLLIYFASQSISGIPARFSGSGSGTEFTLTISSLQSEDFAVYYCQQSNSFPLTFGGGTKVEIKR
notes: scFv-80 variant: VH Y59S; not shown: proprietary C-terminal FLAG tag
koff (human IL-23 [1]): < 1e-05 s⁻¹ | koff (human IL-23 [2]): 0.00025 s⁻¹ | fold affinity improvement compared to parental scFv-80 (human IL-12 [3]): 5 fold | Kd (human IL-12 [4]): 46 pM | koff (human IL-12 [4]): 0.0001 s⁻¹ | kon (human IL-12 [4]): 2.2e+06 M⁻¹ s⁻¹ | kon (human IL-23 [5]): 350000 M⁻¹ s⁻¹

B2: Antibody 50 (antibody, human IgG1, kappa, V domains shown)
VH: EVQLQQSGADLVRSGASIKLSCTASGFNIKDYYLHWVKQRPEQGLEWIGWIDPENGDTEYAPKFQGKATMTADTSSNTAYLQLSSLTSEDTAVYYCNANKELRYFDVWGAGTTVTVSS
VL: DIVLTQSPATLSVTPGDSVSLSCRASQSISINLHWYQQKSHESPRLLIKFASQSISGIPSRFSGYGSGTDFTLSINSVETEDFGRYFCQQSNSFPLTFGAGTKLELKR
notes: Optimized chimeric antibody (W94F, M34L, C95N)
binding result (human IL-12 [6]): binds | binding result (human IL-23 [7]): binds

B3: Antibody 183 (antibody, human IgG1, kappa, V domains shown)
VH: QVQLVQSGAEVKKPGASVKVSCKASGYTLTDYYLHWVRQAPGQGLEWMGWIDPENGDTEYAPKFQGRVTMTTDTSTSTAYMELRSLRSDDTAVYYCNANKELRYFDVWGQGAMVTVSS
VL: EIVMTQSPATLSVSPGERATLSCRASQSISINLHWYQQKPGQAPRLLIYFASQSISGIPARFFGSGSGTEFTLTISSLQSEDFAVYYCQQSNSFPLTFGGGTKVEIKR
notes: also called CU-A6 as IgG
koff (human IL-23 [8]): < 1e-05 s⁻¹ | Kd (human IL-12 [9]): 65 pM | koff (human IL-12 [9]): 0.00027 s⁻¹ | kon (human IL-12 [9]): 4.1e+06 M⁻¹ s⁻¹ | Kd (human IL-23 [10]): ≤ 2.7 pM | kon (human IL-23 [10]): 400000 M⁻¹ s⁻¹
